Experimental data as given in patent US20240033359A1 (Takeda / Millennium, published 2024).

Assays:
[1] = target: T1, GCC on CT26 cells; test: flow cytometry on CT26 cells, dose response
T1 construct: whole, on cells; That the target is GCC is inferred from this context
Description: Binding of single domain antibodies to CT26 cells was measured using flow cytometry. CT26 cells were incubated with serially diluted VH and fluorescence was measured by flow cytometry. Anti-GCC VH antibodies were confirmed for binding to CT26 cells by a FACS dose response assay to obtain an on cell binding EC50 (nM) as shown in Table 4.

[2] = target: T2, human guanylyl cyclase C (GCC), as used in the Octet binding assay (human, UniProt P25092 24-430, limits assumed); test: Octet BLI, 1:1 model
T2 construct: also called STAR; GUC2C
Description: Single domain heavy chain antibodies (VH) were generated that specifically target human GCC (e.g., anti-GCC binders provided in Tables 1-3). […] Binding kinetics were determined using an Octet binding assay. These were measured in real-time bio-layer interferometer based biosensor Octet (ForteBio). All the binding studies were performed in HBS-ET Octet kinetics buffer. Biosensors were always washed in Octet kinetics buffer in between different steps. A seven point, two-fold dilution series of each VH was made. The contact time for each of the association steps was 300 seconds and the dissociation step was varied between 400-600 seconds. Kinetic association (ka) and dissociation (kd) rate constants were determined by processing and fitting the data to a 1:1 binding model using ForteBio Analysis software.

T2 sequence (P25092 24-430 limits assumed): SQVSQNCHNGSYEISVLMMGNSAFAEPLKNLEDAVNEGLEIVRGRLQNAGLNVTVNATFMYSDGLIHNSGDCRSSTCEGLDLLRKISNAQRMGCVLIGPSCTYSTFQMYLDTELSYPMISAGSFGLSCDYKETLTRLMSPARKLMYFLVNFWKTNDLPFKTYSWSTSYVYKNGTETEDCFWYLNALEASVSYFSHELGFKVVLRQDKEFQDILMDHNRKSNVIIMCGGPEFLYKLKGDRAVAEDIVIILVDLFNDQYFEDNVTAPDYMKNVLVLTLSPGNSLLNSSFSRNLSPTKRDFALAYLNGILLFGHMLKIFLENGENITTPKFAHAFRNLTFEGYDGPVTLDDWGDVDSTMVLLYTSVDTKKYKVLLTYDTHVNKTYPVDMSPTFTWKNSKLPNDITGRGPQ
T1 sequence (Q3UWA6 whole entry): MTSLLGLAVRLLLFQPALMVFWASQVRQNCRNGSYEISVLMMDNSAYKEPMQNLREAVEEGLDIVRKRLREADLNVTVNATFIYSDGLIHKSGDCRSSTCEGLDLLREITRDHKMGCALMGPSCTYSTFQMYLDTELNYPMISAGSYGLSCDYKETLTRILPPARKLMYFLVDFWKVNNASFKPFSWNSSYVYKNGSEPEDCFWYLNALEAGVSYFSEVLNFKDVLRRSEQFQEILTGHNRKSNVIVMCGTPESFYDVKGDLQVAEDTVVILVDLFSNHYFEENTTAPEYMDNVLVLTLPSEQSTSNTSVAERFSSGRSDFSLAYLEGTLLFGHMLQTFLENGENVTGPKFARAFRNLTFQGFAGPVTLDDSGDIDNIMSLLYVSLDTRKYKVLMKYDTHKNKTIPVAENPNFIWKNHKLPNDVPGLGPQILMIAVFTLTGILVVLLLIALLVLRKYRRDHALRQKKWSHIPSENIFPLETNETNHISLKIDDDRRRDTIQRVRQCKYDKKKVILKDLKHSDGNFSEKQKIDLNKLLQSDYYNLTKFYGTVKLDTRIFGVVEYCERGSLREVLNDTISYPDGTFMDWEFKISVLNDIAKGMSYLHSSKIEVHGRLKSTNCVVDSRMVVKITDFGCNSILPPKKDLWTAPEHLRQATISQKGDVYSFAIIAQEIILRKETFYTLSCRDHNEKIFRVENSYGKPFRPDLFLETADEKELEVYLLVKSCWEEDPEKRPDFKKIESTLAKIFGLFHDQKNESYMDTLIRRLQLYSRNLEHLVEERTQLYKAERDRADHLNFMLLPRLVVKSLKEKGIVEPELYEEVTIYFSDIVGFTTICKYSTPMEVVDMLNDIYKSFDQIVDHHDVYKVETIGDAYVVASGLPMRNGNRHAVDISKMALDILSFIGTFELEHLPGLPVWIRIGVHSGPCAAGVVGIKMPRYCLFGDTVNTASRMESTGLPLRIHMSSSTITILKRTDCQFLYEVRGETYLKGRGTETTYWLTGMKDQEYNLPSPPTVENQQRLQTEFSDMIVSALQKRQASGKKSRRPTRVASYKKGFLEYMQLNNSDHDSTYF

Binder | EC50 [1] | Kd [2] | koff [2]
V51 anti-GCC single domain VH antibody (VHH, Human heavy chain variable single domain antibody (VH only), tested as recombinant purified VH; No tags are stated) VHH: EVQLVESGGGLVQPGGSLRLSCAASGFTFSRYWMTWVRQAPGKGLEWVAKIRHDGGEKYYADSVKGRFTISRDNAKNSLYLQMNSLRAEDTAVYYCTRDYNKDYWGQGTLVTVSS | – | 9.54 nM | 0.00185 s⁻¹
V36 anti-GCC single domain VH antibody (VHH, Human heavy chain variable single domain antibody (VH only), tested as recombinant purified VH; No tags are stated) VHH: EVQLVESGGGLAQPGGSLRLSCAASGFTFSRYWMTWVRQAPGGRLEWVAKIKYDGSEKYYADSVKGRFTISRDNAKNSLYLQMDSLRAEDTAVYYCTRDYNKDYWGQGTLVTVSS | – | 105 nM | 0.0035 s⁻¹

Binders with a lower Kd [2], results first:

EC50 [1] | Kd [2] | koff [2] | Binder
1.52 nM | 7.71 nM | 0.000719 s⁻¹ | V5 anti-GCC single domain VH antibody (VHH, Human heavy chain variable single domain antibody (VH only), tested as recombinant purified VH; No tags are stated) VHH: QVQLVESGGGLVQPGGSLRLSCTASGFTFSRYWMSWVRQAPGKGLEWVAKIRHDGGEKYYVDSVKGRFTISRDNAKNSLYLQMNSLRAEDTAVYYCATDYTRDVWGQGTAVTVSS
1.01 nM | 1.38 nM | 0.000341 s⁻¹ | V48 anti-GCC single domain VH antibody (VHH, Human heavy chain variable single domain antibody (VH only), tested as recombinant purified VH; No tags are stated) VHH: EVQLVESGGGLVQPGGSLRLTCAASGFTFSRYWMTWVRQAPGKGLEWVAKIRHDGGEKYYPDSVKGRFTVSRDNAKNSLYLQMDNLRAEDTAMYYCTRDYNKDLWGQGTLVTVSS
0.72 nM | 0.329 nM | 0.000208 s⁻¹ | V1 anti-GCC single domain VH antibody (VHH, Human heavy chain variable single domain antibody (VH only, no light chain), tested as recombinant purified VH; also called V1 VH) VHH: QVQLQESGPGLVKPSETLSLTCTVSGASISHYYWSWFRQPAGKGLEWIGRIYPSGSTSYNPSLKSRVAMSVDTPKNQFSLNLSSVTAADTAVYYCARDRSTGWSEWNSDLWGRGTLVTVSS
